Source: the supplement of paper PMC5998384

Columns and labels:
HeLa Kyoto [1] = assay: solubility change mitosis vs G1/S (difference of NP-40 vs SDS log2 ratios) (log2 ratio difference); higher = more soluble in mitosis
HeLa Kyoto [2] = assay: solubility in G1/S (NP-40 vs SDS abundance) (log2 ratio); higher = more soluble; details: cell cycle stage: G1/S
HeLa Kyoto [3] = assay: thermal stability score vs G1/S (z-score of summed log2 fold changes over temperatures); higher = more thermally stable than in G1/S
HeLa Kyoto [4] = assay: melting temperature (median over replicates), in situ; higher = more thermally stable
[5] = cell cycle stage: early G1 (4.5 h after nocodazole release)
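For melting temperature (median over replicates), in situ in this document: HeLa Kyoto cells synchronized by double thymidine or nocodazole block, proteins quantified by TMT10plex mass spectrometry, three independent biological replicates.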
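For solubility change mitosis vs G1/S (difference of NP-40 vs SDS log2 ratios) in this document: synchronized HeLa Kyoto cells (double thymidine block for G1/S, nocodazole release for mitosis), protein amounts in NP-40 versus SDS lysates quantified by mass spectrometry, three biological replicates.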
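For solubility in G1/S (NP-40 vs SDS abundance) in this document: HeLa Kyoto cells arrested at G1/S by double thymidine block, proteins quantified by TMT10plex mass spectrometry in mild NP-40 versus SDS extracts, three biological replicates.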
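For thermal stability score vs G1/S (z-score of summed log2 fold changes over temperatures) in this document: synchronized HeLa Kyoto cells, proteins quantified by TMT10plex mass spectrometry, three biological replicates, mitosis taken 0.5 h after nocodazole release, G1/S directly after double thymidine block.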

| Sequence | solubility change mitosis (log2) (HeLa Kyoto [1]) | solubility in G1/S (log2) (HeLa Kyoto [2]) | thermal stability score (HeLa Kyoto [3]; [5]) | thermal stability score (HeLa Kyoto [3]; cell cycle stage: mitosis) | melting temperature (HeLa Kyoto [4]; cell cycle stage: G1/S) [°C] | melting temperature (HeLa Kyoto [4]; cell cycle stage: mitosis) [°C] |
| --- | --- | --- | --- | --- | --- | --- |
| MAELGAGGDGHRGGDGAVRSETAPDSYKVQDKKNASSRPASAISGQNNNHSGNKPDPPPVLRVDDRQRLARERREEREKQLAAREIVWLEREERARQHYEKHLEERKKRLEEQRQKEERRRAAVEEKRRQRLEEDKERHEAVVRRTMERSQKPKQKHNRWSWGGSLHGSPSIHSADPDRRSVSTMNLSKYVDPVISKRLSSSSATLLNSPDRARRLQLSPWESSVVNRLLTPTHSFLARSKSTAALSGEAASCSPIIMPYKAAHSRNSMDRPKLFVTPPEGSSRRRIIHGTASYKKERERENVLFLTSGTRRAVSPSNPKARQPARSRLWLPSKSLPHLPGTPRPTSSLPPGSVKAAPAQVRPPSPGNIRPVKREVKVEPEKKDPEKEPQKVANEPSLKGRAPLVKVEEATVEERTPAEPEVGPAAPAMAPAPASAPAPASAPAPAPVPTPAMVSAPSSTVNASASVKTSAGTTDPEEATRLLAEKRRLAREQREKEERERREQEELERQKREELAQRVAEERTTRREEESRRLEAEQAREKEEQLQRQAEERALREREEAERAQRQKEEEARVREEAERVRQEREKHFQREEQERLERKKRLEEIMKRTRRTEATDKKTSDQRNGDIAKGALTGGTEVSALPCTTNAPGNGKPVGSPHVVTSHQSKVTVESTPDLEKQPNENGVSVQNENFEEIINLPIGSKPSRLDVTNSESPEIPLNPILAFDDEGTLGPLPQVDGVQTQQTAEVI [MAP7] | 0.704 | -0.661 | -5.44 | -8.57 | 54.3 | 52.1 |
| MAELQMLLEEEIPSGKRALIESYQNLTRVADYCENNYIQATDKRKALEETKAYTTQSLASVAYQINALANNVLQLLDIQASQLRRMESSINHISQTVDIHKEKVARREIGILTTNKNTSRTHKIIAPANMERPVRYIRKPIDYTVLDDVGHGVKWLKAKHGNNQPARTGTLSRTNPPTQKPPSPPMSGRGTLGRNTPYKTLEPVKPPTVPNDYMTSPARLGSQHSPGRTASLNQRPRTHSGSSGGSGSRENSGSSSIGIPIAVPTPSPPTIGPENISVPPPSGAPPAPPLAPLLPVSTVIAAPGSAPGSQYGTMTRQISRHNSTTSSTSSGGYRRTPSVTAQFSAQPHVNGGPLYSQNSISIAPPPPPMPQLTPQIPLTGFVARVQENIADSPTPPPPPPPDDIPMFDDSPPPPPPPPVDYEDEEAAVVQYNDPYADGDPAWAPKNYIEKVVAIYDYTKDKDDELSFMEGAIIYVIKKNDDGWYEGVCNRVTGLFPGNYVESIMHYTD [ABI1] | -0.104 | 0.313 | -0.724 | -0.695 | 51.1 | 51.4 |
| MAELRVLVAVKRVIDYAVKIRVKPDRTGVVTDGVKHSMNPFCEIAVEEAVRLKEKKLVKEVIAVSCGPAQCQETIRTALAMGADRGIHVEVPPAEAERLGPLQVARVLAKLAEKEKVDLVLLGKQAIDDDCNQTGQMTAGFLDWPQGTFASQVTLEGDKLKVEREIDGGLETLRLKLPAVVTADLRLNEPRYATLPNIMKAKKKKIEVIKPGDLGVDLTSKLSVISVEDPPQRTAGVKVETTEDLVAKLKEIGRI [ETFB] | 0.0272 | 0.362 | -1.74 | -0.806 | 54 | 54.2 |
| MAENHAQNKAKLISETRRRFEAEYVTDKSDKYDARDVERLQQDDNWVESYLSWRHNIVDETLKMLDESFQWRKEISVNDLNESSIPRWLLEIGVIYLHGYDKEGNKLFWIRVKYHVKDQKTILDKKKLIAFWLERYAKRENGKPVTVMFDLSETGINSIDMDFVRFIINCFKVYYPKYLSKIVIFDMPWLMNAAFKIVKTWLGPEAVSLLKFTSKNEVQDYVSVEYLPPHMGGTDPFKYSYPPLVDDDFQTPLCENGPITSEDETSSKEDIESDGKETLETISNEEQTPLLKKINPTESTSKAEENEKVDSKVKAFKKPLSVFKGPLLHISPAEELYFGSTESGEKKTLIVLTNVTKNIVAFKVRTTAPEKYRVKPSNSSCDPGASVDIVVSPHGGLTVSAQDRFLIMAAEMEQSSGTGPAELTQFWKEVPRNKVMEHRLRCHTVESSKPNTLTLKDNAFNMSDKTSEDICLQLSRLLESNRKLEDQVQRCIWFQQLLLSLTMLLLAFVTSFFYLLYS [MOSPD2] | -0.115 | -0.0365 | 1.72 | 0.81 | 51.4 | 51.4 |
| MAENTEGDLNSNLLHAPYHTGDPQLDTAIGQWLRWDKNPKTKEQIENLLRNGMNKELRDRLCCRMTFGTAGLRSAMGAGFCYINDLTVIQSTQGMYKYLERCFSDFKQRGFVVGYDTRGQVTSSCSSQRLAKLTAAVLLAKDVPVYLFSRYVPTPFVPYAVQKLKAVAGVMITASHNRKEDNGYKVYWETGAQITSPHDKEILKCIEECVEPWNGSWNDNLVDTSPLKRDPLQDICRRYMEDLKKICFYRELNSKTTLKFVHTSFHGVGHDYVQLAFKVFGFKPPIPVPEQKDPDPDFSTVKCPNPEEGESVLELSLRLAEKENARVVLATDPDADRLAAAELQENGCWKVFTGNELAALFGWWMFDCWKKNKSRNADVKNVYMLATTVSSKILKAIALKEGFHFEETLPGFKWIGSRIIDLLENGKEVLFAFEESIGFLCGTSVLDKDGVSAAVVVAEMASYLETMNITLKQQLVKVYEKYGYHISKTSYFLCYEPPTIKSIFERLRNFDSPKEYPKFCGTFAILHVRDVTTGYDSSQPNKKSVLPVSKNSQMITFTFQNGCVATLRTSGTEPKIKYYAEMCASPDQSDTALLEEELKKLIDALIENFLQPSKNGLIWRSV [PGM2L1] | -0.173 | 0.0482 | 0.325 | -0.133 | 53.4 | 54.2 |
| MAEPSAPESKHKSSLNSSPWSGLMALGNSRHGHHGPGAQCAHKAAGGAAPPKPAPAGLSGGLSQPAGWQSLLSFTILFLAWLAGFSSRLFAVIRFESIIHEFDPWFNYRSTHHLASHGFYEFLNWFDERAWYPLGRIVGGTVYPGLMITAGLIHWILNTLNITVHIRDVCVFLAPTFSGLTSISTFLLTRELWNQGAGLLAACFIAIVPGYISRSVAGSFDNEGIAIFALQFTYYLWVKSVKTGSVFWTMCCCLSYFYMVSAWGGYVFIINLIPLHVFVLLLMQRYSKRVYIAYSTFYIVGLILSMQIPFVGFQPIRTSEHMAAAGVFALLQAYAFLQYLRDRLTKQEFQTLFFLGVSLAAGAVFLSVIYLTYTGYIAPWSGRFYSLWDTGYAKIHIPIIASVSEHQPTTWVSFFFDLHILVCTFPAGLWFCIKNINDERVFVALYAISAVYFAGVMVRLMLTLTPVVCMLSAIAFSNVFEHYLGDDMKRENPPVEDSSDEDDKRNQGNLYDKAGKVRKHATEQEKTEEGLGPNIKSIVTMLMLMLLMMFAVHCTWVTSNAYSSPSVVLASYNHDGTRNILDDFREAYFWLRQNTDEHARVMSWWDYGYQIAGMANRTTLVDNNTWNNSHIALVGKAMSSNETAAYKIMRTLDVDYVLVIFGGVIGYSGDDINKFLWMVRIAEGEHPKDIRESDYFTPQGEFRVDKAGSPTLLNCLMYKMSYYRFGEMQLDFRTPPGFDRTRNAEIGNKDIKFKHLEEAFTSEHWLVRIYKVKAPDNRETLDHKPRVTNIFPKQKYLSKKTTKRKRGYIKNKLVFKKGKKISKKTV [STT3B] | -0.0861 | -0.175 | 3.35 | 3.7 | 53.8 | 54.2 |
| MAETAAGVGRFKTNYAVERKIEPFYKGGKAQLDQTGQHLFCVCGTRVNILEVASGAVLRSLEQEDQEDITAFDLSPDNEVLVTASRALLLAQWAWQEGSVTRLWKAIHTAPVATMAFDPTSTLLATGGCDGAVRVWDIVRHYGTHHFRGSPGVVHLVAFHPDPTRLLLFSSATDAAIRVWSLQDRSCLAVLTAHYSAVTSLAFSADGHTMLSSGRDKICIIWDLQSCQATRTVPVFESVEAAVLLPEEPVSQLGVKSPGLYFLTAGDQGTLRVWEAASGQCVYTQAQPPGPGQELTHCTLAHTAGVVLTATADHNLLLYEARSLRLQKQFAGYSEEVLDVRFLGPEDSHVVVASNSPCLKVFELQTSACQILHGHTDIVLALDVFRKGWLFASCAKDQSVRIWRMNKAGQVMCVAQGSGHTHSVGTVCCSRLKESFLVTGSQDCTVKLWPLPKALLSKNTAPDNGPILLQAQTTQRCHDKDINSVAIAPNDKLLATGSQDRTAKLWALPQCQLLGVFSGHRRGLWCVQFSPMDQVLATASADGTIKLWALQDFSCLKTFEGHDASVLKVAFVSRGTQLLSSGSDGLVKLWTIKNNECVRTLDAHEDKVWGLHCSRLDDHALTGASDSRVILWKDVTEAEQAEEQARQEEQVVRQQELDNLLHEKRYLRALGLAISLDRPHTVLTVIQAIRRDPEACEKLEATMLRLRRDQKEALLRFCVTWNTNSRHCHEAQAVLGVLLRREAPEELLAYEGVRAALEALLPYTERHFQRLSRTLQAAAFLDFLWHNMKLPVPAAAPTPWETHKGALP [TBL3] | 0.233 | -0.936 | 1.58 | -0.746 | 50.6 | 51.3 |
